# US20130344055A1, “ANTIMICROBIAL AGENTS” (priority 2010, published 2013)
# Test system: Staphylococcus bacteria
# Test: In vitro antibacterial activity of Lysostaphin and LysK fusion variants
# Assay type: cell-based
# Details: LysK variants; with EDTA 0.5 mM; 10^6 cells/ml; 30 minutes at RT
row,Molecule,"Average log reduction, Staphylococcus"
1,"PK2-Cecropin A (A. aegyptii)-LysK: PK2, then Cecropin A (A. aegyptii), N-terminally fused to LysK (protein) MKRKKRKKRKKRKKRKKRKGGLKKLGKKLEGAGKRVFNAAEKALPVVAGAKALRKAKTQAEINKRLDAYAKGTVDSPYRVKKATSYDPSFGVMEAGAIDADGYYHAQCQDLITDYVLWLTDNKVRTWGNAKDQIKQSYGTGFKIHENKPSTVPKKGWIAVFTSGSYEQWGHIGIVYDGGNTSTFTILEQNWNGYANKKPTKRVDNYYGLTHFIEIPVKAGTTVKKETAKKSASKTPAPKKKATLKVSKNHINYTMDKRGKKPEGMVIHNDAGRSSGQQYENSLANAGYARYANGIAHYYGSEGYVWEAIDAKNQIAWHTGDGTGANSGNFRFAGIEVCQSMSASDAQFLKNEQAVFQFTAEKFKEWGLTPNRKTVRLHMEFVPTACPHRSMVLHTGFNPVTQGRPSQAIMNKLKDYFIKQIKNYMDKGTSSSTVVKDGKTSSASTPATRPVTGSWKKNQYGTWYKPENATFVNGNQPIVTRIGSPFLNAPVGGNLPAGATIVYDEVCIQAGHIWIGYNAYNGNRVYCPVRTCQGVPPNQIPGVAWGVFK",+++ (+++: 4 or more logs)
2,"PK2-LysK: LysK fusion variant with one peptide stretch, PK2 (protein) MKRKKRKKRKKRKKRKKRKAKTQAEINKRLDAYAKGTVDSPYRVKKATSYDPSFGVMEAGAIDADGYYHAQCQDLITDYVLWLTDNKVRTWGNAKDQIKQSYGTGFKIHENKPSTVPKKGWIAVFTSGSYEQWGHIGIVYDGGNTSTFTILEQNWNGYANKKPTKRVDNYYGLTHFIEIPVKAGTTVKKETAKKSASKTPAPKKKATLKVSKNHINYTMDKRGKKPEGMVIHNDAGRSSGQQYENSLANAGYARYANGIAHYYGSEGYVWEAIDAKNQIAWHTGDGTGANSGNFRFAGIEVCQSMSASDAQFLKNEQAVFQFTAEKFKEWGLTPNRKTVRLHMEFVPTACPHRSMVLHTGFNPVTQGRPSQAIMNKLKDYFIKQIKNYMDKGTSSSTVVKDGKTSSASTPATRPVTGSWKKNQYGTWYKPENATFVNGNQPIVTRIGSPFLNAPVGGNLPAGATIVYDEVCIQAGHIWIGYNAYNGNRVYCPVRTCQGVPPNQIPGVAWGVFK",++ (++: 2-3 log)
3,"Cecropin A (A. aegyptii)-LysK: LysK fusion variant with one peptide stretch, Cecropin A (A. aegyptii) (protein) MGGLKKLGKKLEGAGKRVFNAAEKALPVVAGAKALRKAKTQAEINKRLDAYAKGTVDSPYRVKKATSYDPSFGVMEAGAIDADGYYHAQCQDLITDYVLWLTDNKVRTWGNAKDQIKQSYGTGFKIHENKPSTVPKKGWIAVFTSGSYEQWGHIGIVYDGGNTSTFTILEQNWNGYANKKPTKRVDNYYGLTHFIEIPVKAGTTVKKETAKKSASKTPAPKKKATLKVSKNHINYTMDKRGKKPEGMVIHNDAGRSSGQQYENSLANAGYARYANGIAHYYGSEGYVWEAIDAKNQIAWHTGDGTGANSGNFRFAGIEVCQSMSASDAQFLKNEQAVFQFTAEKFKEWGLTPNRKTVRLHMEFVPTACPHRSMVLHTGFNPVTQGRPSQAIMNKLKDYFIKQIKNYMDKGTSSSTVVKDGKTSSASTPATRPVTGSWKKNQYGTWYKPENATFVNGNQPIVTRIGSPFLNAPVGGNLPAGATIVYDEVCIQAGHIWIGYNAYNGNRVYCPVRTCQGVPPNQIPGVAWGVFK",++ (++: 2-3 log)

# Test system: Pseudomonas bacteria
# Test: In vitro antibacterial activity of KZ144 and EL188 fusion variants
# Assay type: cell-based
# Details: with EDTA 0.5 mM; 10^6 cells/ml; 30 minutes at RT
# Description: Exponential growing Gram-negative bacterial cells (OD600 nm=0.6) were 100-fold diluted to a final density of about 10^6 cells/ml in 5 mM HEPES pH 7.4 and incubated for 30 minutes at room temperature without shaking with the different modified OBPgpLYS variants (in Elution Buffer in an end concentration of 1500 nM). After incubation cell suspensions and as a control untreated bacterial cells without any added modified OBPgpLYS variant were diluted three times (respectively 10^5-10^4-10^3 cells/ml) in 1× concentrated PBS buffer and 100 μl of each dilution was plated out on LB-medium. […] All samples were replicated in threefold. Averages +/− standard deviations are represented.
# The purification of the fusion proteins and the antimicrobial activity assay was performed as described in Example 1.
row,Molecule,"Average log reduction, Pseudomonas"
1,"EL188-PK: EL188 fusion variant with one peptide stretch, PK (protein) MNFRTKNGYRDLQALVKELGLYTGQIDGVWGKGTSSSTETLLRGYAEVVGKNTGGIGLPTTSDASGYNVITALQRNLAFLGLYSLTVDGIWGNGTLSGDKAFEVYKERYRTPTYDIAWSGKVSPAFTAKVKDWCGVHVPNHRAPHWLMACMAFETGQTFSPSIKNAAGSEAYGLIQFMSPAANDLNVPLSVIRSMDQLTQLDLVFKYFEMWMKRGKRYTQLEDFYLTIFHPASVGKKADEVLFLQGSKAYLQNKGFDVDKDGKITLGEISSTLYTTYYKGLLPENRHVISYKRKKRKKRK",+ (+: 1 log)
2,"KZ144: Pseudomonas aeruginosa bacteriophage endolysin KZ144 (phage phiKZ) (protein, Pseudomonas aeruginosa phage KZ) KVLRKGDRGDEVCQLQTLLNLCGYDVGKPDGIFGNNTFNQVVKFQKDNCLDSDGIVGKNTWAELFSKYSPPIPYKTIPMPTANKSRAAATPVMNAVENATGVRSQLLLTFASIESAFDYEIKAKTSSATGWFQFLTGTWKTMIENYGMKYGVLTDPTGALRKDPRISALMGAELIKENMNILRPVLKREPTDTDLYLAHFFGPGAARRFLTTGQNELAATHFPKEAQANPSIFYNKDGSPKTIQEVYNLMDGKVAAHRK",+/− (+/−: <1 log)
3,"EL188: Pseudomonas aeruginosa bacteriophage endolysin EL188 (phage EL) (protein, Pseudomonas aeruginosa phage EL) MNFRTKNGYRDLQALVKELGLYTGQIDGVWGKGTSSSTETLLRGYAEVVGKNTGGIGLPTTSDASGYNVITALQRNLAFLGLYSLTVDGIWGNGTLSGLDKAFEVYKERYRTPTYDIAWSGKVSPAFTAKVKDWCGVHVPNHRAPHWLMACMAFETGQTFSPSIKNAAGSEAYGLIQFMSPAANDLNVPLSVIRSMDQLTQLDLVFKYFEMWMKRGKRYTQLEDFYLTIFHPASVGKKADEVLFLQGSKAYLQNKGFDVDKDGKITLGEISSTLYTTYYKGLLPENRHVISY",+/− (+/−: <1 log)
4,"KZ144-PK: KZ144 fusion variant with one peptide stretch, PK (protein) MKVLRKGDRGDEVCQLQTLLNLCGYDVGKPDGIFGNNTFNQVVKFQKDNCLDSDGIVGKNTWAELFSKYSPPIPYKTIPMPTANKSRAAATPVMNAVENATGVRSQLLLTFASIESAFDYEIKAKTSSATGWFQFLTGTWKTMIENYGMKYGVLTDPTGALRKDPRISALMGAELIKENMNILRPVLKREPTDTDLYLAHFFGPGAARRFLTTGQNELAATHFPKEAQANPSIFYNKDGSPKTIQEVYNLMDGKVAAHRKKRKKRKKRK",+ (+: 1 log)

# Test system: Streptococcus bacteria
# Test: In vitro antibacterial activity of Cpl1 fusion variants
# Assay type: cell-based
# Details: with EDTA 0.5 mM; 10^6 cells/ml; 30 minutes at RT
row,Molecule,"Average log reduction, Streptococcus"
1,"Cpl1: endolysin Cpl-1 (protein, Streptococcus pneumoniae Phage Cpl-1) MVKKNDLFVDVSSHNGYDITGILEQMGTTNTIIKISESTTYLNPCLSAQVEQSNPIGFYHFARFGGDVAEAEREAQFFLDNVPMQVKYLVLDYEDDPSGDAQANTNACLRFMQMIADAGYKPIYYSYKPFTHDNVDYQQILAQFPNSLWIAGYGLNDGTANFEYFPSMDGIRWWQYSSNPFDKNIVLLDDEEDDKPKTAGTWKQDSKGWWFRRNNGSFPYNKWEKIGGVWYYFDSKGYCLTSEWLKDNEKWYYLKDNGAMATGWVLVGSEWYYMDDSGAMVTGWVKYKNNWYYMTNERGNMVSNEFIKSGKGWYFMNTNGELADNPSFTKEPDGLITVA",+ (+: 1 log)
2,"Cpl1-Pseudin1-Indolicidin: Cpl1 with Pseudin1 C-terminal of the enzyme, followed by Indolicidin (protein) MVKKNDLFVDVSSHNGYDITGILEQMGTTNTIIKISESTTYLNPCLSAQVEQSNPIGFYHFARFGGDVAEAEREAQFFLDNVPMQVKYLVLDYEDDPSGDAQANTNACLRFMQMIADAGYKPIYYSYKPFTHDNVDYQQILAQFPNSLWIAGYGLNDGTANFEYFPSMDGIRWWQYSSNPFDKNIVLLDDEEDDKPKTAGTWKQDSKGWWFRRNNGSFPYNKWEKIGGVWYYFDSKGYCLTSEWLKDNEKWYYLKDNGAMATGWVLVGSEWYYMDDSGAMVTGWVKYKNNWYYMTNERGNMVSNEFIKSGKGWYFMNTNGELADNPSFTKEPDGLITVAGLNTLKKVFQGLHEAIKLINNHVQILPWKWPWWPWRR",+++ (+++: 4 or more logs)
3,"Cpl1-Pseudin1: Cpl1 fusion variant with one peptide stretch, Pseudin1 (protein) MVKKNDLFVDVSSHNGYDITGILEQMGTTNTIIKISESTTYLNPCLSAQVEQSNPIGFYHFARFGGDVAEAEREAQFFLDNVPMQVKYLVLDYEDDPSGDAQANTNACLRFMQMIADAGYKPIYYSYKPFTHDNVDYQQILAQFPNSLWIAGYGLNDGTANFEYFPSMDGIRWWQYSSNPFDKNIVLLDDEEDDKPKTAGTWKQDSKGWWFRRNNGSFPYNKWEKIGGVWYYFDSKGYCLTSEWLKDNEKWYYLKDNGAMATGWVLVGSEWYYMDDSGAMVTGWVKYKNNWYYMTNERGNMVSNEFIKSGKGWYFMNTNGELADNPSFTKEPDGLITVAGLNTLKKVFQGLHEAIKLINNHVQ",++ (++: 2-3 log)
4,"Cpl1-Indolicidin: Cpl1 fusion variant with one peptide stretch, Indolicidin (protein) MVKKNDLFVDVSSHNGYDITGILEQMGTTNTIIKISESTTYLNPCLSAQVEQSNPIGFYHFARFGGDVAEAEREAQFFLDNVPMQVKYLVLDYEDDPSGDAQANTNACLRFMQMIADAGYKPIYYSYKPFTHDNVDYQQILAQFPNSLWIAGYGLNDGTANFEYFPSMDGIRWWQYSSNPFDKNIVLLDDEEDDKPKTAGTWKQDSKGWWFRRNNGSFPYNKWEKIGGVWYYFDSKGYCLTSEWLKDNEKWYYLKDNGAMATGWVLVGSEWYYMDDSGAMVTGWVKYKNNWYYMTNERGNMVSNEFIKSGKGWYFMNTNGELADNPSFTKEPDGLITVAILPWKWPWWPWRR",++ (++: 2-3 log)
